Experimental data from patent publication US20080305116A1 (published 2008).

T1: human CD154, soluble antigen (human, UniProt P29965 116-261, limits assumed)
T1 construct: KinExA uses 'soluble antigen'; also called CD40 ligand; CD40L
T1 sequence (looked up): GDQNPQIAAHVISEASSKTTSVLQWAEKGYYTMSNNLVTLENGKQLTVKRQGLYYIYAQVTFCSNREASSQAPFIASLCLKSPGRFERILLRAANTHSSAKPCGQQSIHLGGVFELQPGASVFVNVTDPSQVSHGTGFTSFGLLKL

T2: CD154 on D1.1 cells (human, UniProt P29965 1-261)
T2 sequence (looked up): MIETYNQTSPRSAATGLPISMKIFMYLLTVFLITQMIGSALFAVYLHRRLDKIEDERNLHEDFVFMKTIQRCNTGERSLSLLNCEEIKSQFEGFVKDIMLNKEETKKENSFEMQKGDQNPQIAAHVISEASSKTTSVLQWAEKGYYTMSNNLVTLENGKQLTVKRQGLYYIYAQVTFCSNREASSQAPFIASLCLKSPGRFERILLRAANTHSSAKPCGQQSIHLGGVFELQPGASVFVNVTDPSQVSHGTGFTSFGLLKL


Key:
[1] = target: T1, human CD154, soluble antigen; test: ELISA-based competitive binding assay; unlabeled Fab against biotin-labeled 5c8 Fab competitor
[2] = target: T1, human CD154, soluble antigen; test: KinExA solution-phase equilibrium, Fab with soluble antigen
CD154 on D1.1 cells = target: T2, CD154 on D1.1 cells; test: cell-based or functional assay
[3] = target: T1, human CD154, soluble antigen; test: assay not named in the sentence (the paragraph speaks of competitive ELISA)
[4] = target: T1, human CD154, soluble antigen; test: assay not given

Row | ELISA fold-improvement over wildtype [1] [fold] | Kd [2] [nM] | IC50 (ug/ml), T cell-dependent B cell activation assay (CD154 on D1.1 cells) [µg/mL] | fold higher affinity compared to the wildtype 5c8 Fab [3] [fold] | fold higher affinity compared to the wild type [4] [fold] | Binder
1 | 5.6 | 0.041 | 0.287 | 9 | – | 5c8 Fab Mutant #14 (light chain S26D/Q27E) (Fab, V domains shown, also called double mutant) VH: QVQLVQSGAEVVKPGASVKLSCKASGYIFTSYYMYWVKQAPGQGLEWIGEINPSNGDTNFNEKFKSKATLTVDKSASTAYMELSSLRSEDTAVYYCTRSDGRNDMDSWGQGTLVTVSS VL: DIVLTQSPATLSVSPGERATISCRADERVSSSTYSYMHWYQQKPGQPPKLLIKYASNLESGVPARFSGSGSGTDFTLTISSVEPEDFATYYCQHSWEIPPTFGGGTKLEIK
2 | 5.2 | 0.053 | – | – | – | 5c8 Fab Mutant #23 (heavy Y33W; light S26D/Q27E) (Fab, V domains shown) VH: QVQLVQSGAEVVKPGASVKLSCKASGYIFTSYWMYWVKQAPGQGLEWIGEINPSNGDTNFNEKFKSKATLTVDKSASTAYMELSSLRSEDTAVYYCTRSDGRNDMDSWGQGTLVTVSS VL: DIVLTQSPATLSVSPGERATISCRADERVSSSTYSYMHWYQQKPGQPPKLLIKYASNLESGVPARFSGSGSGTDFTLTISSVEPEDFATYYCQHSWEIPPTFGGGTKLEIK
3 | 8 | 0.052 | – | – | – | 5c8 Fab Mutant #24 (heavy T30H/Y33W; light S26D/Q27E) (Fab, V domains shown) VH: QVQLVQSGAEVVKPGASVKLSCKASGYIFHSYWMYWVKQAPGQGLEWIGEINPSNGDTNFNEKFKSKATLTVDKSASTAYMELSSLRSEDTAVYYCTRSDGRNDMDSWGQGTLVTVSS VL: DIVLTQSPATLSVSPGERATISCRADERVSSSTYSYMHWYQQKPGQPPKLLIKYASNLESGVPARFSGSGSGTDFTLTISSVEPEDFATYYCQHSWEIPPTFGGGTKLEIK
4 | 5.9 | 0.023 | 0.131 | – | – | 5c8 Fab Mutant #17 (heavy Y33W; light S26D/Q27E/T33W) (Fab, V domains shown) VH: QVQLVQSGAEVVKPGASVKLSCKASGYIFTSYWMYWVKQAPGQGLEWIGEINPSNGDTNFNEKFKSKATLTVDKSASTAYMELSSLRSEDTAVYYCTRSDGRNDMDSWGQGTLVTVSS VL: DIVLTQSPATLSVSPGERATISCRADERVSSSWYSYMHWYQQKPGQPPKLLIKYASNLESGVPARFSGSGSGTDFTLTISSVEPEDFATYYCQHSWEIPPTFGGGTKLEIK
5 | 3.8 | 0.044 | – | – | – | 5c8 Fab Mutant #15 (light chain S26D/Q27E/T33W) (Fab, V domains shown) VH: QVQLVQSGAEVVKPGASVKLSCKASGYIFTSYYMYWVKQAPGQGLEWIGEINPSNGDTNFNEKFKSKATLTVDKSASTAYMELSSLRSEDTAVYYCTRSDGRNDMDSWGQGTLVTVSS VL: DIVLTQSPATLSVSPGERATISCRADERVSSSWYSYMHWYQQKPGQPPKLLIKYASNLESGVPARFSGSGSGTDFTLTISSVEPEDFATYYCQHSWEIPPTFGGGTKLEIK
6 | 5.4 | 0.054 | – | – | – | 5c8 Fab Mutant #18 (heavy T30H; light S26D/Q27E/T33W) (Fab, V domains shown) VH: QVQLVQSGAEVVKPGASVKLSCKASGYIFHSYYMYWVKQAPGQGLEWIGEINPSNGDTNFNEKFKSKATLTVDKSASTAYMELSSLRSEDTAVYYCTRSDGRNDMDSWGQGTLVTVSS VL: DIVLTQSPATLSVSPGERATISCRADERVSSSWYSYMHWYQQKPGQPPKLLIKYASNLESGVPARFSGSGSGTDFTLTISSVEPEDFATYYCQHSWEIPPTFGGGTKLEIK
7 | 5.6 | 0.012 | 0.165 | – | 25 | 5c8 Fab Mutant #25 (heavy T30H/Y33W; light S26D/Q27E/T33W) (Fab, V domains shown) VH: QVQLVQSGAEVVKPGASVKLSCKASGYIFHSYWMYWVKQAPGQGLEWIGEINPSNGDTNFNEKFKSKATLTVDKSASTAYMELSSLRSEDTAVYYCTRSDGRNDMDSWGQGTLVTVSS VL: DIVLTQSPATLSVSPGERATISCRADERVSSSWYSYMHWYQQKPGQPPKLLIKYASNLESGVPARFSGSGSGTDFTLTISSVEPEDFATYYCQHSWEIPPTFGGGTKLEIK
8 | 5.8 | 0.07 | – | – | – | 5c8 Fab Mutant #16 (heavy T30H; light S26D/Q27E) (Fab, V domains shown) VH: QVQLVQSGAEVVKPGASVKLSCKASGYIFHSYYMYWVKQAPGQGLEWIGEINPSNGDTNFNEKFKSKATLTVDKSASTAYMELSSLRSEDTAVYYCTRSDGRNDMDSWGQGTLVTVSS VL: DIVLTQSPATLSVSPGERATISCRADERVSSSTYSYMHWYQQKPGQPPKLLIKYASNLESGVPARFSGSGSGTDFTLTISSVEPEDFATYYCQHSWEIPPTFGGGTKLEIK
